Results from patent US20230241168A1 (ALPINE IMMUNE SCIENCES, published 2023).
Where a chain is given by its changes, count along the chain named. Numbers in names are those of the source. Where two headings read alike, the source gives them in different places. No end group written: not given here.

T1: recombinant human APRIL (human, UniProt O75888 105-250, limits assumed)
T1 sequence (looked up): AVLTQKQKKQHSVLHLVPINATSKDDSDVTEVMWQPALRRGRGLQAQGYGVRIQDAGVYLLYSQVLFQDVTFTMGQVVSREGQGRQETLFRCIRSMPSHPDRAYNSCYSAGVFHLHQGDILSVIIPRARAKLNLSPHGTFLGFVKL

T2: human CD86 (human, UniProt P42081 24-329)
T2 sequence (looked up): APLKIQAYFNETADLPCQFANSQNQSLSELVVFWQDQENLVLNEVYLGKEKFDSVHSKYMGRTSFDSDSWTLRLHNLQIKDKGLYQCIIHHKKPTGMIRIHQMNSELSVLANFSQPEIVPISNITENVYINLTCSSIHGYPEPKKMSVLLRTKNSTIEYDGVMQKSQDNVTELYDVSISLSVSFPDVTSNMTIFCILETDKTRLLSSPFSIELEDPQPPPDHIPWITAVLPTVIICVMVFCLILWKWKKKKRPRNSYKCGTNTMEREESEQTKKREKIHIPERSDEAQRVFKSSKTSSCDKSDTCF

T3: human CD80 (human, UniProt P33681 35-288)
T3 sequence (looked up): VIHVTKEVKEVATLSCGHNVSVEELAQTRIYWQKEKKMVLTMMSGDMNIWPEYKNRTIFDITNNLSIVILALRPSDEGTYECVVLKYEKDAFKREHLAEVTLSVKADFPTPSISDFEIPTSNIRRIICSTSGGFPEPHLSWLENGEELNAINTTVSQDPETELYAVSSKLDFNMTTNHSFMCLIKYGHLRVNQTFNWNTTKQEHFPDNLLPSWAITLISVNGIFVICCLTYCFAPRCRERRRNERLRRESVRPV

T4: human ICOSL (human, UniProt O75144 19-302)
T4 construct: whole, on cells
T4 sequence (looked up): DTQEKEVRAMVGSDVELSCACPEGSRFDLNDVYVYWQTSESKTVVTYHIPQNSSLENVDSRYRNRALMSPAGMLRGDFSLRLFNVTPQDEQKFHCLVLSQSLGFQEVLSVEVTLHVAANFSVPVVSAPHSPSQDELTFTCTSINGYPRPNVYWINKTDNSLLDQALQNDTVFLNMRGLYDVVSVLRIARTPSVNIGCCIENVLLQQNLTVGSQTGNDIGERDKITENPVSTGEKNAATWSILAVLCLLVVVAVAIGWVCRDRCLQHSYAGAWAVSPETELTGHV

B1: Belimumab (antibody, V domains shown)
VH: QVQLQQSGAEVKKPGSSVRVSCKASGGTFNNNAINWVRQAPGQGLEWMGGIIPMFGTAKYSQNFQGRVAITADESTGTASMELSSLRSEDTAVYYCARSRDLLLFPHHALSPWGRGTMVTVSS
VL: SSELTQDPAVSVALGQTVRVTCQGDSLRSYYASWYQQKPGQAPVLVIYGKNNRPSGIPDRFSGSSSGNTASLTITGAQAEDEADYYCSSRDSSGNHWVFGGGTELTVLG
B2: TACI WT Fc (Fc fusion, not shown: a dimerising Fc or GST)
chain: VAMRSCPEEQYWDPLLGTCMSCKTICNHQSQRTCAAFCRSLSCRKEQGKFYDHLLRDCISCASICGQHPKQCAYFCENKLRS
B3: CTLA-4 186 GSG4S Fc (G4S)4 TACI 541 (Fc fusion)
chain: KAMHVAQPAVVLASSRGIASFVCEYASPWKATEVRVTVLRQADSQVTEVCAATYMMGNELTFLDDSICTGTSSGNQVNLTIQGLRAMDTGLYICKVEQMYPPPYLLGIGNGTQIYVIDPEPCPDSDGSGGGGSEPKSSDKTHTCPPCPAPEAEGAPSVFLFPPKPKDTLMISRTPEVTCVVVDVSHEDPEVKFNWYVDGVEVHNAKTKPREEQYNSTYRVVSVLTVLHQDWLNGKEYKCKVSNKALPAPIEKTISKAKGQPREPQVYTLPPSRDELTKNQVSLTCLVKGFYPSDIAVEWESNGQPENNYKTTPPVLDSDGSFFLYSKLTVDKSRWQQGNVFSCSVMHEALHNHYTQKSLSLSPGGGGGSGGGGSGGGGSGGGGSSLSCRKEQGEYYDHLLRDCISCASICGQHPKQCADFCENKLRS
B4: CTLA-4 186 GSG4S Fc (G4S)4 (TACI 542) (Fc fusion)
chain: B3 chain with Q392E, E394K, Y395F, R401Q, D419Y
B5: variant CTLA-4 ECD-Fc G29W/L98Q/Y105L (Fc fusion)
chain: KAMHVAQPAVVLASSRGIASFVCEYASPWKATEVRVTVLRQADSQVTEVCAATYMMGNELTFLDDSICTGTSSGNQVNLTIQGLRAMDTGLYICKVEQMYPPPYLLGIGNGTQIYVIDPEPCPDSDGSGGGGSEPKSSDKTHTCPPCPAPEAEGAPSVFLFPPKPKDTLMISRTPEVTCVVVDVSHEDPEVKFNWYVDGVEVHNAKTKPREEQYNSTYRVVSVLTVLHQDWLNGKEYKCKVSNKALPAPIEKTISKAKGQPREPQVYTLPPSRDELTKNQVSLTCLVKGFYPSDIAVEWESNGQPENNYKTTPPVLDSDGSFFLYSKLTVDKSRWQQGNVFSCSVMHEALHNHYTQKSLSLSPG
B6: variant CTLA-4 ECD-Fc M56T/L98Q/Y105L (Fc fusion)
chain: B5 chain with W29G, M56T
B7: CTLA-4 186GSG4S-Fc-(G4S)4-BCMA 411 (Fc fusion)
chain: KAMHVAQPAVVLASSRGIASFVCEYASPWKATEVRVTVLRQADSQVTEVCAATYMMGNELTFLDDSICTGTSSGNQVNLTIQGLRAMDTGLYICKVEQMYPPPYLLGIGNGTQIYVIDPEPCPDSDGSGGGGSEPKSSDKTHTCPPCPAPEAEGAPSVFLFPPKPKDTLMISRTPEVTCVVVDVSHEDPEVKFNWYVDGVEVHNAKTKPREEQYNSTYRVVSVLTVLHQDWLNGKEYKCKVSNKALPAPIEKTISKAKGQPREPQVYTLPPSRDELTKNQVSLTCLVKGFYPSDIAVEWESNGQPENNYKTTPPVLDSDGSFFLYSKLTVDKSRWQQGNVFSCSVMHEALHNHYTQKSLSLSPGGGGGSGGGGSGGGGSGGGGSLQMAGQCSQNEYFDSLLRACIPCQLRCSSNTPPLTCQRYCNASVTNSVKGTNA
B8: CTLA-4 186GSG4S-Fc-(G4S)4-BCMA 405 (Fc fusion)
chain: B7 chain with R402K
B9: CTLA-4 186-GSG4S-Fc-(G4S)4-BCMA 406 (Fc fusion)
chain: B7 chain with R402L
B10: 528 TACI CRD2-Fc (Fc fusion, not shown: a dimerising Fc or GST)
chain: SLSCRKEQGKFYDHLLRDCISCASICGQHPKQCAYFCENKLRS
modifications: not fully specified (C-terminus); cysteine pairing not given here; also: Fc fusion, linker and Fc not given here

Tests used:
[1] = biological target: recombinant human BAFF (human) (UniProt Q9Y275); experiment: cell-based or functional assay; parameters: IC50 APRIL (Δ TACI 30-110-Fc) / IC50 BAFF (Δ TACI 30-110-Fc): unit not given beside the values
[2] = biological target: recombinant human APRIL (human) (UniProt O75888); experiment: cell-based or functional assay; parameters: IC50 APRIL (Δ TACI 30-110-Fc) / IC50 BAFF (Δ TACI 30-110-Fc): unit not given beside the values
[3] = biological target: recombinant human BAFF (human) (UniProt Q9Y275); experiment: cell-based or functional assay; parameters: IC50 APRIL (Δ Parental vTD) / IC50 BAFF (Δ Parental vTD): unit not given beside the values
[4] = biological target: recombinant human APRIL (human) (UniProt O75888); experiment: cell-based or functional assay; parameters: IC50 APRIL (Δ Parental vTD) / IC50 BAFF (Δ Parental vTD): unit not given beside the values
[5] = biological target: T1, recombinant human APRIL; experiment: cell-based or functional assay
[6] = biological target: T5, recombinant human BAFF (human, UniProt Q9Y275 134-285); experiment: cell-based or functional assay
[7] = biological target: T2, human CD86; experiment: cell-based or functional assay
[8] = biological target: T3, human CD80; experiment: cell-based or functional assay
[9] = biological target: T1, recombinant human APRIL; experiment: cell-based or functional assay; remark: listed apart in the source
[10] = biological target: T5, recombinant human BAFF; experiment: cell-based or functional assay; remark: listed apart in the source
[11] = biological target: T4, human ICOSL; experiment: flow cytometry, cells expressing human ICOSL

Molecule	IC50 (nM) BAFF [1] [nM]	IC50 BAFF (Δ TACI 30-110-Fc) [1]	IC50 (nM) APRIL [2] [nM]	IC50 APRIL (Δ TACI 30-110-Fc) [2]	CD86 IC50 [7] [nM]	CD86 IC50 (Δ Parental CTLA-4) [7] [ratio]	CD80 IC50 [8] [nM]	CD80 IC50 (Δ Parental CTLA-4) [8] [ratio]	IC50 (nM) APRIL [9] [nM]	IC50 (nM) BAFF [10] [nM]	also measured
BCMA WT-Fc (Fc fusion)	823	0.14	183	0.05	–	–	–	–	–	–	IC50 (nM) BAFF [3]: 0.995 nM; IC50 BAFF (Δ Parental vTD) [3]: 1; IC50 (nM) APRIL [4]: 1.03 nM; IC50 APRIL (Δ Parental vTD) [4]: 1
TACI 30-110-Fc (Fc fusion)	5770	1	3850	1	–	–	–	–	–	–	–
TACI 13-118-Fc (Fc fusion)	7700	1.33	9100	2.37	–	–	–	–	–	–	–
B1	–	–	–	–	–	–	–	–	–	–	IC50 (nM) APRIL [5]: 215000 nM; IC50 APRIL (Δ TACI 30-110-Fc) [5]: 55.8 ratio; IC50 (nM) BAFF [6]: 2500 nM; IC50 BAFF (Δ TACI 30-110-Fc) [6]: 0.43 ratio
B2	–	–	–	–	–	–	–	–	–	–	IC50 (nM) BAFF [3]: 2.58 nM; IC50 BAFF (Δ Parental vTD) [3]: 1; IC50 (nM) APRIL [4]: 9.17 nM; IC50 APRIL (Δ Parental vTD) [4]: 1
B3	–	–	–	–	10.2	1.2	56.9	1.7	1.56	0.103	IC50 (nM) APRIL [5]: 272 nM; IC50 APRIL (Δ TACI 30-110-Fc) [5]: 0.07 ratio; IC50 (nM) BAFF [6]: 1260 nM; IC50 BAFF (Δ TACI 30-110-Fc) [6]: 0.22 ratio
B4	–	–	–	–	9	1.1	82.6	2.5	2.49	0.153	–
B5	–	–	–	–	8.2	1	33.6	1	–	–	MFI [11]: 570 MFI
B6	–	–	–	–	–	–	–	–	–	–	MFI [11]: 700 MFI
B7	–	–	–	–	9	1.1	32.7	1	2.37	0.133	–
B8	–	–	–	–	10.8	1.3	70.1	2.1	18.4	0.16	–
B9	–	–	–	–	8.1	1.3	25.2	0.8	0.997	0.49	IC50 (nM) APRIL [5]: 269 nM; IC50 APRIL (Δ TACI 30-110-Fc) [5]: 0.07 ratio; IC50 (nM) BAFF [6]: 2630 nM; IC50 BAFF (Δ TACI 30-110-Fc) [6]: 0.46 ratio
B10	1330	0.23	369	0.1	–	–	–	–	–	–	–
